In PMC5481204:

Molecular target: full length T216A Mos1 transposase (Drosophila mauritiana)
Assay: crystal structure; Mos1 strand transfer complex (STC): T216A Mos1 transposase and strand transfer product DNA at 50 uM each in 25 mM PIPES-NaOH pH 7.5, 250 mM NaCl, 20 mM MgCl2, 1 mM DTT; sitting drop, 30% (v/v) MPD, 0.1 M sodium cacodylate pH 6.5, 0.2 M magnesium acetate; 3.3 Å; one STC in the asymmetric unit

stoichiometry N: 2
Substance: full length T216A Mos1 transposase (enzyme)
